Test results reported in article PMC5716219.

What was measured:
[1] = biological target: T1, CST complex (CTC1-STN1-TEN1) (human, UniProt Q2NKJ3;Q9H668;Q86WV5 1-1217;1-368;1-123); test: smFRET
[2] = biological target: T1, CST complex (CTC1-STN1-TEN1); test: EMSA
[3] = biological target: T1, CST complex (CTC1-STN1-TEN1); test: EMSA; remark: listed apart in the source
[4] = biological target: T1, CST complex (CTC1-STN1-TEN1); test: smFRET; remark: listed apart in the source
[5] = biological target: T1, CST complex (CTC1-STN1-TEN1); test: EMSA; remark: listed apart in the source
[6] = biological target: T1, CST complex (CTC1-STN1-TEN1); test: EMSA; remark: listed apart in the source
[7] = biological target: T1, CST complex (CTC1-STN1-TEN1); test: EMSA; remark: listed apart in the source
[8] = biological target: T1, CST complex (CTC1-STN1-TEN1); test: EMSA; remark: listed apart in the source

T1 sequence (Q2NKJ3 whole entry, chain 1 of 3): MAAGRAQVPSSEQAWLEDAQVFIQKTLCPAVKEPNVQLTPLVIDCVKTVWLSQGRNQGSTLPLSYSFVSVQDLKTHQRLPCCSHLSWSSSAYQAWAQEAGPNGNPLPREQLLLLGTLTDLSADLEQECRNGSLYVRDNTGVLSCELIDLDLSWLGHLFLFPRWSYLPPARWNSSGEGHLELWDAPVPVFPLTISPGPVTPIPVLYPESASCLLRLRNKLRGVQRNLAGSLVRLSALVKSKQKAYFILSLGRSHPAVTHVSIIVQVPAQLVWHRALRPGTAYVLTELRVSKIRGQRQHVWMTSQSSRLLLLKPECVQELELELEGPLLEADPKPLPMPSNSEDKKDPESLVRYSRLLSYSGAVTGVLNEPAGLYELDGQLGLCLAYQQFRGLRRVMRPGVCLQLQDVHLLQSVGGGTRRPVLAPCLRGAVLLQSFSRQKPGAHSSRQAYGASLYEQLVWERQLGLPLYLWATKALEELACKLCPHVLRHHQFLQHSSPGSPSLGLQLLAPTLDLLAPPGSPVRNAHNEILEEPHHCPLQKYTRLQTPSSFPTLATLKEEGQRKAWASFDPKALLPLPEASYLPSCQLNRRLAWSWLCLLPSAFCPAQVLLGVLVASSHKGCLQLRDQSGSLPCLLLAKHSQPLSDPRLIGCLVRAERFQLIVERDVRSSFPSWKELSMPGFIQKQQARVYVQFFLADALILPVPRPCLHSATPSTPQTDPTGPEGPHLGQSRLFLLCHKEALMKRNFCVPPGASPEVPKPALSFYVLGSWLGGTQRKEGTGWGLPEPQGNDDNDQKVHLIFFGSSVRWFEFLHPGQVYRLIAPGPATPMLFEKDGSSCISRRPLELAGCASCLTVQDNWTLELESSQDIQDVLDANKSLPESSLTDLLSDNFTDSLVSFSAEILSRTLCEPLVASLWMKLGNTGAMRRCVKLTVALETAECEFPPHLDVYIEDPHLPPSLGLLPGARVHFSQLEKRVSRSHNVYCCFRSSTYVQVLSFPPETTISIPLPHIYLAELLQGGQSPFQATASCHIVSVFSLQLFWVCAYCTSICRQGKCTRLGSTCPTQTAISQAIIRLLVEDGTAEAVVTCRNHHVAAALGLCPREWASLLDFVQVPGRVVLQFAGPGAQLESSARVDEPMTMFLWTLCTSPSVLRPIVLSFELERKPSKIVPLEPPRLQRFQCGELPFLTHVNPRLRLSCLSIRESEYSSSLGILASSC
T1 sequence (Q9H668 whole entry, chain 2 of 3): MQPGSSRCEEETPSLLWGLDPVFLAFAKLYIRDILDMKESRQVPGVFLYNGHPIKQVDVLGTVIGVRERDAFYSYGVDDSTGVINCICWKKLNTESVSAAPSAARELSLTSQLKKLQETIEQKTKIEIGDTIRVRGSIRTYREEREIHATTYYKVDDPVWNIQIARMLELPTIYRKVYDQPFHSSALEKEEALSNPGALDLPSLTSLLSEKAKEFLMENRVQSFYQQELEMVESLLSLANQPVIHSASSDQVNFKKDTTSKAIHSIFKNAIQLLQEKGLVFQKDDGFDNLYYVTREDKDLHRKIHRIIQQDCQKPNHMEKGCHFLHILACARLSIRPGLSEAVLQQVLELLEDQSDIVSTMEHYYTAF
T1 sequence (Q86WV5 whole entry, chain 3 of 3): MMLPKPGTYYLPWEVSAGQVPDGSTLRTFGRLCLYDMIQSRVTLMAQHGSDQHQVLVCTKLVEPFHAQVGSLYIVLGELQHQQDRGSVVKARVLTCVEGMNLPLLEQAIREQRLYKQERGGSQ

B1: smFRET non-telomeric junction, 18 nt overhang (mixed)
DNA 1: TGGCGACGGCAGCGAGGCAGCGTATCCGTTCAGTTG
DNA 2: GCCTCGCTGCCGTCGCCA
binding result [1]: binds

B2: Telomere fold-back 18 nt 3' overhang (structured_DNA)
DNA: CTAACCGCATCTAGCTTTTTGCTAGATGCGGTTAGGGTTAGGGTTAGGGTTAG
binding result [2]: binds

B3: 3G5 (G5 in text) (structured_DNA)
DNA: TTAGGGTTAGGGTTAGGGTTAGGGTTAGGG
binding result [3]: binds

B4: smFRET 3G4-Cy3 (mixed)
DNA 1: TGGCGACGGCAGCGAGGCTTAGGGTTAGGGTTAGGGTTAGGG
DNA 2: GCCTCGCTGCCGTCGCCA
binding result [4]: binds

B5: smFRET 3G46-Cy3 (mixed)
DNA 1: TGGCGACGGCAGCGAGGCTTAGGGTTAGGGTTAGGGTTAGGGAGCGTA
DNA 2: GCCTCGCTGCCGTCGCCA
binding result [4]: binds

B6: G4 (structured_DNA)
DNA: GGGTTAGGGTTAGGGTTAGGG
binding result [3]: binds

B7: 3G4 (structured_DNA)
DNA: TTAGGGTTAGGGTTAGGGTTAGGG
binding result [3]: binds

B8: 3G46 (structured_DNA)
DNA: TTAGGGTTAGGGTTAGGGTTAGGGAGCGTA
binding result [3]: binds

B9: Two-oligonucleotide junction 32/22 (mixed)
DNA 1: GCGTACTCAGTGACTCAGATCGAGCGTATCCG
DNA 2: CGATCTGAGTCACTGAGTACGC
binding result [5]: binds

B10: Non-Tel fold-back 18 nt 3' overhang (structured_DNA)
DNA: ACGACTGCATCTAGCTTTTTGCTAGATGCAGTCGTAGCGTATCCGTTCAGTTG
binding result [2]: binds

B11: Non-Tel 22 (ssDNA)
DNA: CGATCTGAGTCACTGAGTACGC
binding result [6]: no binding

B12: Tel 18 (ssDNA)
DNA: GGTTAGGGTTAGGGTTAG
binding result [7]: binds

B13: Non-Tel 18 (ssDNA)
DNA: AGCGTATCCGTTCAGTTG
binding result [8]: no binding

B14: Mixed fold-back 18 nt 3' overhang (structured_DNA)
DNA: ACGACTGCATCTAGCTTTTTGCTAGATGCAGTCGTGGTTAGGGTTAGGGTTAG
binding result [8]: binds

B15: Non-Tel fold-back (dsDNA), no overhang (structured_DNA)
DNA: ACGACTGCATCTAGCTTTTTGCTAGATGCAGTCGT
binding result [8]: no binding
